# Reference: US20190218553, “VON WILLEBRAND FACTOR (VWF)-TARGETING AGENTS AND METHODS OF USING THE SAME” (DUKE UNIVERSITY, published 2019)
# B1: T86 vrt1 (ssRNA)
# RNA: ACGAACUGCCCUCGUUUCAUCGACGCACAGACGU
# modifications: 2'-F C2,U7,C9,C10,C11,U12,C24,C26,C32,U34; ribo A1,G3,G8,A23,G25,A27,G33; rest 2'-OMe; 3' idT
# B2: T11 (ssRNA)
# RNA: GGGAGGACGAACUGCCCUCAGCUACUUUCAUGUUGCUGACGCACAGACGACUCGCUG
# modifications: 2'-F C and U; 2'-OH A and G
# B3: T90 vrt1 (ssRNA)
# RNA: ACGAACUGCCCUCUAUUAUUUGACGCACAGACGU
# modifications: 2'-F C2,U7,C9,C10,C11,U12,C24,C26,C32,U34; ribo A1,G3,G8,A23,G25,A27,G33; rest 2'-OMe; 3' idT
# B4: T25 vrt5 (ssRNA)
# RNA: ACGAACUGCCCUCAGCUACUUUCAUGUUGCUGACGCACAGACGU
# modifications: rAfCrGmAmAfCfUrGfCfCfCfUfCrArGfCfUrAfCfUfUfUfCrAfUrGfUfUrGfCfUrGrAfCrGfCrAfCmAmGmAfCrGfU-idT
# B5: T25 vrt14 (ssRNA)
# RNA: B4 RNA
# modifications: mAfCrGrArAfCfUrGfCfCfCfUfCrArGfCfUrAfCfUfUfUfCrAfUrGfUfUrGfCfUrGrAfCrGfCrAfCrArGrAfCrGmU-idT
# B6: T25 vrt16 (ssRNA)
# RNA: B4 RNA
# modifications: rAfCmGrArAfCfUrGfCfCfCfUfCrArGfCfUrAfCfUfUfUfCrAfUrGfUfUrGfCfUrGrAfCrGfCrAfCrArGrAmCrGfU-idT
# How the values were obtained:
# [1] = molecular target: T1, von Willebrand factor (VWF) (Homo sapiens, UniProt P04275 P04275:764-2813); test: filter; Bmax 54%; 2 mM CaCl2, 37 C; conditions: tags: factor VIII free, Haematologic Technologies Inc; label: 5'-32P
# Description: (§1) Affinity constants (Kd values) were determined using double-filter nitrocellulose filter binding assays (Rusconi et al, Thromb. Haemost. $4:841-848 (2000)). All binding studies were performed in binding buffer F (20 mM HEPES, pH 7.4, 150 mM NaCl, 2 mM CaCl₂, and 0.01% BSA) at 37° C. Human purified VWF (factor VIII free) was purchased from Haematologic Technologies Inc. (Essex Junction, Vt.) and used in the double-filter nitrocellulose filter binding assay to determine the Kd of the aptamers. Briefly, RNA were end-labeled at the 5′ end with T4 polynucleotide kinase (New England Biolabs, Beverly, Mass.) and [γ³²P] ATP (Amersham Pharmacia Biotech, Piscataway, N.J.) (Fitzwater and Polisky, Methods Enzymol. 267:275-301 (1996)). End-labeled RNA was diluted in binding buffer F, heat denatured at 65° C. for 5 minutes, and subsequently equilibrated at 37° C. Direct binding was performed by incubating trace ³²P-RNA with varying concentrations of VWF protein in binding buffer F at 37° C. for 5 min. The fraction of the nucleic acid-protein complex which bound to the nitrocellulose membrane was quantified with a phosphorimager (Molecular Dynamics, Sunnyvale, Calif.). Non-specific binding of the radiolabeled nucleic acid was subtracted out of the binding such that only specific binding remained (Wong and Lohman, Proc. Natl. Acad. Sci. USA 90:5428-5432 (1993)).
# [2] = molecular target: T1, von Willebrand factor (VWF); test: filter; Bmax 87%; 2 mM CaCl2, 37 C; conditions: Haematologic Technologies Inc, label: 5'-32P
# Description: as §1
# [3] = molecular target: T1, von Willebrand factor (VWF); test: filter; Bmax 78%; 2 mM CaCl2, 37 C; conditions: Haematologic Technologies Inc, label: 5'-32P
# Description: as §1
# [4] = molecular target: T1, von Willebrand factor (VWF); test: filter; Bmax 58%; 2 mM CaCl2, 37 C; conditions: tags: factor VIII free, Haematologic Technologies Inc; label: 5'-32P
# Description: as §1
# [5] = molecular target: T1, von Willebrand factor (VWF); test: filter; Bmax 81%; 2 mM CaCl2, 37 C; conditions: tags: factor VIII free, Haematologic Technologies Inc; label: 5'-32P
# Description: as §1
# [6] = molecular target: T1, von Willebrand factor (VWF); test: filter; Bmax 86%; 2 mM CaCl2, 37 C; conditions: Haematologic Technologies Inc, label: 5'-32P
# Description: as §1
# [7] = molecular target: T1, von Willebrand factor (VWF); test: filter; Bmax 88%; 2 mM CaCl2, 37 C; conditions: Haematologic Technologies Inc, label: 5'-32P
# Description: as §1
# [8] = molecular target: T1, von Willebrand factor (VWF); test: filter; Bmax 80%; 2 mM CaCl2, 37 C; conditions: Haematologic Technologies Inc, label: 5'-32P
# Description: as §1
# [9] = molecular target: T1, von Willebrand factor (VWF); test: filter; Bmax 82%; 2 mM CaCl2, 37 C; conditions: Haematologic Technologies Inc, label: 5'-32P
# Description: as §1
# [10] = tags: factor VIII free human purified VWF
binder,measurement,setting,value
"ACGAACUGCCCUCAGCAUUUCAUUGCUGACGCACAGACGU (ssRNA, 2'-F C and U; 2'-OH A and G; 3' idT) [T40]",Kd,[1],11 nM
"ACGAACUGCCCUCGAUCGACGCACAGACGUACCCG (ssRNA, 2'-F C9,C10,C11,C20,C22; ribo G21; rest 2'-OMe; 3' idT) [T82 vrt4]",Kd,[2]; [10],38.5 nM
"ACGAACUGCCCUCGAUCGACGCACAGACGUACCCG (ssRNA, 2'-F C9,C10,C11,C20,G21,C22; rest 2'-OMe; 3' idT) [T82 vrt7]",Kd,[3]; [10],268 nM
"ACGAACUGCCCUCAGCUAUUUCAUUUGCUGACGCACAGACGU (ssRNA, 2'-F C and U; 2'-OH A and G; 3' idT) [T36]",Kd,[4],11 nM
"ACGAACUGCCCUCGAUCGACGCACAGACGU (ssRNA, 2'-F C and U; 2'-OH A and G; 3' idT) [T59]",Kd,[3]; tags: factor VIII free,8.8 nM
"ACGAACUGCCCUCAUUAUUGACGCACAGACGU (ssRNA, 2'-F C and U; 2'-OH A and G; 3' idT) [T70]",Kd,[5],13 nM
"ACGAACUGCCCUCUUUUUUGACGCACAGACGU (ssRNA, 2'-F C and U; 2'-OH A and G; 3' idT) [T94]",Kd,[2]; tags: factor VIII free,5 nM
"ACGAACUGCCCUCUUUUUUGACGCACAGACGU (ssRNA, 2'-F C9,C10,C11,C22,G23,C24,U32; rest 2'-OMe; 3' idT) [T94 vrt6]",Kd,[3]; [10],42 nM
"ACGAACUGCCCUCUUUCAUGACGCACAGACGU (ssRNA, 2'-F C and U; 2'-OH A and G; 3' idT) [T87]",Kd,[6]; tags: factor VIII free,11 nM
"ACGAACUGCCCUCGAUCGACGCACAGACGUUUUUU (ssRNA, rAfCrGmAmAmCfUrGfCfCfCfUmCmGmAmUmCmGrAfCrGfCrAmCmAmGmAfCrGfUmUmUmUmUmU-idT) [T79 vrt1]",Kd,[3]; tags: factor VIII free,1.9 nM
"ACGAACUGCCCUCGAUCGACGCACAGACGUUUUUU (ssRNA, mAmCmGmAmAmCmUmGfCfCfCmUmCmGmAmUmCmGmAfCrGfCmAmCmAmGmAmCmGfUmUmUmUmUmU-idT) [T79 vrt2]",Kd,[5],24 nM
"ACGAACUGCCCUCAGCAUUAUUGCUGACGCACAGACGU (ssRNA, 2'-F C and U; 2'-OH A and G; 3' idT) [T52]",Kd,[4],16 nM
"ACGAACUGCCCUCGUUUCAUCGACGCACAGACGU (ssRNA, 2'-F C and U; 2'-OH A and G; 3' idT) [T86]",Kd,[7]; tags: factor VIII free,16 nM
B1,Kd,[8]; [10],0.9 nM
"ACGAACUGCCCUCGUUUCAUCGACGCACAGACGU (ssRNA, 2'-F C9,C10,C11,C24,C26; ribo G25; rest 2'-OMe; 3' idT) [T86 vrt4]",Kd,[7]; [10],12 nM
"ACGAACUGCCCUCGUUUCAUCGACGCACAGACGU (ssRNA, 2'-F C9,C10,C11,C24,G25,C26; rest 2'-OMe; 3' idT) [T86 vrt7]",Kd,[7]; [10],50 nM
"ACGAACUGCCCUCUUUUUUUUGACGCACAGACGU (ssRNA, 2'-F C and U; 2'-OH A and G; 3' idT) [T95]",Kd,[5],12 nM
B2,Kd,[1],16.5 nM
"ACGAACUGCCCUCGAUCGACGCACAGACGU (ssRNA, 2'-F U7,C9,C10,C11,U12,C20,C22,U30; ribo G8,A19; rest 2'-OMe; 3' idT) [T59 vrt25]",Kd,[6]; [10],76 nM
B3,Kd,[2]; [10],0.9 nM
"ACGAACUGCCCUCUAUUAUUUGACGCACAGACGU (ssRNA, 2'-F C9,C10,C11,C24,G25,C26; rest 2'-OMe; 3' idT) [T90 vrt7]",Kd,[8]; [10],42 nM
"ACGAACUGCCCUCUAUUAUUUGACGCACAGACGU (ssRNA, 2'-F C9,C10,C11,C24,G25,C26,U34; rest 2'-OMe; 3' idT) [T90 vrt6]",Kd,[8]; [10],46 nM
B4,Kd,[4],7.1 nM
"ACGAACUGCCCUCAGCUACUUUCAUGUUGCUGACGCACAGACGU (ssRNA, 2'-F C and U; 2'-OH A and G; 3' idT) [T25]",Kd,[1],13.4 nM
B5,Kd,[1],9.2 nM
B6,Kd,[3]; tags: factor VIII free,4.3 nM
"CCGAACUGCCCUCGAUCGACGCACAGACGG (ssRNA, mCmCmGmAmAmCmUmGfCfCfCmUmCmGmAmUmCmGmAfCrGfCmAmCmAmGmAmCmGmGidT) [DTRI-013]",Kd,[4],5.4 nM
"ACGAACUGCCCUCGAUCGACGCACAGACGU (ssRNA, rAfCrGmAmAmCfUmGfCfCfCfUmCmGmAmUmCmGrAfCrGfCrAmCmAmGmAfCrGfU-idT) [T59 vrt11]",Kd,[7]; tags: factor VIII free,1.3 nM
"ACGAACUGCCCUCGAUCGACGCACAGACGU (ssRNA, mAmCmGmAmAmCmUmGfCfCfCmUmCmGmAmUmCmGmAfCrGfCmAmCmAmGmAmCmGfUidT) [DTRI-006]",Kd,[8]; tags: factor VIII free,7 nM
"ACGAACUGCCCUCGUAUUAUUUCGACGCACAGACGU (ssRNA, 2'-F C9,C10,C11,C26,C28,U36; ribo G27; rest 2'-OMe; 3' idT) [T89 vrt2]",Kd,[8]; [10],12 nM
"ACGAACUGCCCUCGUAUUAUUUCGACGCACAGACGU (ssRNA, 2'-F G8,C9,C10,C11,A25,C26,G27,C28,A29; rest 2'-OMe; 3' idT) [T89 vrt10]",Kd,[6]; [10],548 nM
"ACGAACUGCCCUCGAUCGACGCACAGACGU (ssRNA, mAmCmGmAmAmCfUrGfCfCfCmUmCmGmAmUmCmGmAfCrGfCrAmCmAmGmAmCmGfU-idT) [T59 vrt14]",Kd,[5],1.7 nM
"ACGAACUGCCCUCGAUCGACGCACAGACGU (ssRNA, rAmCrGmAmAmCfUrGfCfCfCfUmCmGmAmUmCmGrAfCrGfCrAmCmAmGmAfCmGfU-idT) [T59 vrt9]",Kd,[6]; tags: factor VIII free,1 nM
"ACGAACUGCCCUCGAUCGACGCACAGACGU (ssRNA, rAfCmGmAmAmCfUrGfCfCfCfUmCmGmAmUmCmGrAfCrGfCrAmCmAmGmAmCrGfU-idT) [T59 vrt10]",Kd,[5],0.4 nM
"ACGAACUGCCCUCGAUCGACGCACAGACGU (ssRNA, mAmCmGmAmAmCfUrGfCfCfCfUmCmGmAmUmCmGrAfCrGfCrAmCmAmGmAmCmGfU-idT) [T59 vrt6]",Kd,[9]; tags: factor VIII free,0.5 nM
"ACGAACUGCCCUCUAUUUCAUUUGACGCACAGACGU (ssRNA, 2'-F C9,C10,C11,C26,C28; ribo G27; rest 2'-OMe; 3' idT) [T93 vrt4]",Kd,[9]; [10],5.7 nM
"ACGAACUGCCCUCUAUUUCAUUUGACGCACAGACGU (ssRNA, 2'-F C9,C10,C11,C26,G27,C28,U36; rest 2'-OMe; 3' idT) [T93 vrt6]",Kd,[9]; [10],33 nM
"ACGAACUGCCCUCGAUCGACGCACAGACGU (ssRNA, mAmCmGmAmAmCmUmGfCfCfCmUmCmGmAmUmCmGmAfCrGfCmAmCmAmGmAmCmGfU-idT) [T59 vrt19]",Kd,[9]; tags: factor VIII free,5.5 nM
"ACGAACUGCCCUCGAUCGACGCACAGACGU (ssRNA, mAfCrGmAmAmCfUrGfCfCfCfUmCmGmAmUmCmGrAfCrGfCrAmCmAmGmAfCrGfU-idT) [T59 vrt8]",Kd,[6]; tags: factor VIII free,1.8 nM
"ACGAACUGCCCUCGAUCGACGCACAGACGU (ssRNA, rAfCrGmAmAmCfUrGfCfCfCmUmCmGmAmUmCmGmAfCrGfCrAmCmAmGmAfCrGfU-idT) [T59 vrt2]",Kd,[2]; tags: factor VIII free,5.5 nM
"ACGAACUGCCCUCUUAUGACGCACAGACGU (ssRNA, 2'-F C and U; 2'-OH A and G; 3' idT) [T68]",Kd,[9]; tags: factor VIII free,16 nM
